Entries after “also recorded” stand apart in the source; their conditions may differ.
T1: human CD39, membrane-bound, as expressed on cells (human, UniProt P49961 1-510)
T1 construct: On OAW42 cells, on monocytes and B cells of patients, in patients' tumour tissue, and in tissues of human CD39 knock-in mice; also called mCD39
T1 sequence: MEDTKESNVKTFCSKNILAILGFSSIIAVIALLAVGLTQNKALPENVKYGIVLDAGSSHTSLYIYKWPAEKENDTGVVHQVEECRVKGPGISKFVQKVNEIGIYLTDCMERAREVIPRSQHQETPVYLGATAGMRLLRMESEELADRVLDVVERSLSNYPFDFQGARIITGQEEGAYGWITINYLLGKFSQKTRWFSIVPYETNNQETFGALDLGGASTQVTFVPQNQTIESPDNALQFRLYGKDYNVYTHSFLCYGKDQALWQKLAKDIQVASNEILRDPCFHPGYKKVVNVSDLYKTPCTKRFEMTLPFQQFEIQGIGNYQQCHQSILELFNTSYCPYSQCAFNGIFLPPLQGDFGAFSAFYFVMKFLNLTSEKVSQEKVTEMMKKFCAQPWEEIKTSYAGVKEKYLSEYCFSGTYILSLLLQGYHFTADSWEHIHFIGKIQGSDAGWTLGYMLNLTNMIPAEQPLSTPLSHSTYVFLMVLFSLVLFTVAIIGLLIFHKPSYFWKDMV

T2: CD39 enzymatic activity (Homo sapiens, UniProt P49961)
T2 construct: genetically modified to express human CD39 in place of its murine counterpart mouse CD39; from tissue; host or cells: tissues (MCA205 tumours) of huCD39KI mice treated with moIPH5201
T2 sequence (P49961 1-510): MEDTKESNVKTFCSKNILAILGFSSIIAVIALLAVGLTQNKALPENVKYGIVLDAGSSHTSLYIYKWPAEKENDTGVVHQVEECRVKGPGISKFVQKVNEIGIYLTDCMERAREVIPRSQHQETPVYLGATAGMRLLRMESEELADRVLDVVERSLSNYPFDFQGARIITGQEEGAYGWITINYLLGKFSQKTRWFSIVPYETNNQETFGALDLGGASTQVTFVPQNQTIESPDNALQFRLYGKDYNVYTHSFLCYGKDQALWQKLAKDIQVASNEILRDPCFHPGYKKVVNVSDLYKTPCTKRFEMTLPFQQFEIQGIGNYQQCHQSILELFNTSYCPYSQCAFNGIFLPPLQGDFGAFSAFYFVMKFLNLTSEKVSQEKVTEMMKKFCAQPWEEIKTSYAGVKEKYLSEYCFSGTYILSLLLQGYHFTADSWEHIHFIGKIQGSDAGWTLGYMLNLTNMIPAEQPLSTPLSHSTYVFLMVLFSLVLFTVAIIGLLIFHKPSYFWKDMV


Tests used:
[1] = molecular target: T1, human CD39, membrane-bound, as …; test: indirect response PD model (inhibition on Kin) fitted to free mCD39 on monocytes of treated patients; flow cytometry, free CD39 detected with a labelled antibody having the VH and VL of IPH5201
Source text: PK/PD modelling and simulation were used to guide selection of doses. IPH5201 PK data from 45 patients and PD data of free membrane CD39 (mCD39) occupancy on monocytes from 43 patients were available. A population PK model was developed with IPH5201 PK best described as a 2-compartment model with parallel linear and saturatable kinetics.
An indirect response PD model (inhibition on Kᵢₙ) was then built to describe the relationship between IPH5201 concentrations and free mCD39 on monocytes (FIG. 10). The model accurately predicted CD39free+ of monocytes (%). […] The final indirect response model was then used for parametric simulation.
To assess free CD39 on monocytes and B cells, blood samples are spiked with an antibody having the VH and VL of IPH5201 and a mouse Fc domain and labelled with a fluorochrome. A second non-competing anti-CD39 monoclonal antibody labelled with a distinct fluorochrome is used to bind to a site on CD39 distinct from the capture antibody. CD14, CD19 and CD45 are detected by incubation with anti-CD14, CD19 and CD45 monoclonal antibodies each labelled with a distinct fluorochrome. Binding is detected by flow cytometry.

[2] = test system: adenosine in MCA205 tumors; test: Intratumoral adenosine in MCA205 tumors in huCD39KI mice (LC-MS/MS); format: in vivo, human CD39 knock-in (huCD39KI) mice; settings: molPH5201 20 mg/kg on day 7 and 14; tumors harvested day 16; vs isotype control; FIG. 4
Procedure: Expression of human CD39 in MCA205 tumors engrafted in human CD39 knock-in (huCD39KI) mice was assessed, followed by measure of intratumoral levels of adenosine after in vivo treatment with molPH5201, an antibody having the VH and VL or SEQ ID NO NOS: 8 and 9 and murine constant domains including an Fc domain with amino acid substitutions to eliminate binding to mouse Fcγ receptors, in order to evaluate the reduction of adenosine levels in tumors by molPH5201 can reduce in vivo.
(§1) Human CD39 expression on MCA205 tumors harvested on day 16 post engraftment was evaluated by IHC with EPR20627 clone from Abcam B&C. MCA205 tumors were engrafted in huCD39KI mice. On day 7 and 14 post tumor implantation, they were treated with molPH5201 (20 mg/kg) or isotype control. On day 16, tumors were harvested. Results are shown in FIG. 4, left hand panel, showing that a significant percentage of cells express CD39.
Quantification of adenosine in the harvested MCA205 tumors was performed using pre-column derivatization and liquid chromatography-mass spectrometry (LC-MS/MS) as described by Goodwin et al. 2019 Anal Biochem 568:78-88.

CD39 enzymatic activity = molecular target: T2, CD39 enzymatic activity; test: Wachstein-Meisel CD39 enzyme assay on tissues of treated mice; format: in vivo, huCD39KI mice; settings: tissues from molPH5201-treated animals; brown color indicates enzyme activity
Procedure: as §1
Blockade of CD39 enzymatic activity was determined using the Wachstein-Meisel CD39 enzyme assay (brown color indicates enzyme activity).

MC38 cancer cell line = test: MC38 tumor growth in huCD39KI mice (gemcitabine +/- anti-PD-L1 +/- molPH5201); format: in vivo, human CD39 knock-in (huCD39KI) mice
Procedure: In vivo experiments were performed in human CD39 knock-in (huCD39KI) mice, genetically modified to express human CD39 in place of its murine counterpart mouse CD39. These mice were sub-cutaneously (s.c.) engrafted with the MC38 cancer cell line. Mice bearing established tumors were dosed with isotype control (IC) antibodies, anti-human CD39 antibody (molPH5201, described above), gemcitabine chemotherapy and anti-mouse PD-L1 antibody (an antibody that binds murine PD-L1 having an Fc domain with amino acid substitutions to eliminate binding to mouse Fcγ receptors.
Male and female huCD39KI mice were engrafted subcutaneously (s.c.) with 1×10^6 MC38 cancer cells. Treatments were initiated after mouse randomization. Mice were treated twice a week for two weeks with gemcitabine (25 mg/kg) or PBS (at day 8, 11, 15 and 18 after cell engraftment) and once a week for four weeks with either anti-human CD39 antibody (molPH5201) or the corresponding isotype control (IC) antibody (400 μg/mouse).
Randomization of mice into four groups was performed on day 7 post tumor cell engraftment, at a mean tumor volume of 72 mm^3±27 mm^3 with individual tumor volumes comprised between 37 and 130 mm^3.
(§2) Male and female huCD39KI mice were engrafted s.c. with 1×10^6 MC38. Treatments were initiated after mouse randomization. Mice were treated twice a week for two weeks with gemcitabine (25 mg/kg) or PBS, twice a week for three weeks with either anti-mouse PD-L1 antibody or the corresponding IC antibody (200 μg/mouse) and once a week for four or five weeks depending on the experiment with either anti-human CD39 antibody (molPH5201) or the corresponding IC antibody (400 μg/mouse). Mouse randomization into five groups was performed on day 7 post tumor cell engraftment at a mean tumor volume of 62 mm^3±23 mm^3 with individual tumor volumes comprised between 31 and 117 mm^3.
as §2, with “As in Experiment 1, male” for “Male”, “64” for “62”, “115” for “117”
as §2, with “As in Experiments 1 and 2, male” for “Male”, “engraftment,” for “engraftment”, “74 mm^3±21” for “62 mm^3±23”, “40” for “31”, “121” for “117”
The three experiments were pooled and results are shown in FIG. 9, showing Tumor growth of MC38 tumor in huCD39KI mice post treatment with gemcitabine+/−anti-PD-L1+/−molPH5201. MC38 tumor-bearing huCD39KI mice were randomized on day 7 and then treated as indicated with 25 mg/kg ip of gemcitabine or PBS, 200 μg ip of anti-mouse PD-L1 antibody or corresponding isotype control antibody and with 400 μg iv of molPH5201 or corresponding IC antibody. Graphs show tumor growth in each individual (n=31/group). CR: Complete Response.

| IC50 [1] | Molecule | intratumoral adenosine compared to control [2] | CD39 enzymatic activity in tissues (CD39 enzymatic activity) | number of complete response when combined with gemcitabine, in comparison to gemcitabine alone (MC38 cancer cell line; Experiment 1 (FIG. 6)) | improvement of anti-tumor effect over the comparator named in the value (MC38 cancer cell line; Experiment 1 (FIG. 6), triple vs gemcitabine alone p<0.05 when control group was excluded) | improvement of anti-tumor efficacy over the comparator named in the value (MC38 cancer cell line; Experiment 2 (FIG. 7), difference marginally significant, p<0.1, control group excluded) | number of complete response (CR) on combination (MC38 cancer cell line; Experiment 3 (FIG. 8)) | improvement of anti-tumor effect over the comparator named in the value (MC38 cancer cell line; Experiment 3 (FIG. 8), triple vs gemcitabine alone marginally significant p<0.1, control group excluded) | improvement of the anti-tumor efficacy of gemcitabine (MC38 cancer cell line; gemcitabine +/- molPH5201 experiment (FIG. 5)) | tumor growth compared to the control group (MC38 cancer cell line; gemcitabine +/- molPH5201 experiment (FIG. 5), gemcitabine 25 mg/kg, molPH5201 400 μg/mouse, p<0.001 where significant) | improvement of anti-tumor efficacy over the comparator named in the value (MC38 cancer cell line; pooled analysis of three experiments (FIG. 9), n=31/group, p<0.05 where improved, linear-mixed effect model) |
| --- | --- | --- | --- | --- | --- | --- | --- | --- | --- | --- | --- |
| 2.44 µg/mL | IPH5201 (humanized anti-CD39 antibody having the respective heavy and light chain amino acid sequences of SEQ ID NOS: 10 and 11) (antibody, human IgG1, kappa, V domains shown) VH: QVQLVQSGAEVKKPGASVKVSCKASGYTFTDYNMHWVRQAPGQRLEWIGYIVPLNGGSTFNQKFKGRATITVDTSARTAYMELSSLRSEDTAVYYCARGGTRFAYWGQGTLVTVSS VL: DIVMTQSPDSLAVSLGERATINCRASESVDNFGVSFMYWFQQKPGQPPKLLIYGASNQGSGVPDRFSGSGSGTDFTLTISSLQAEDVAVYYCQQTKEVPYTFGGGTKVEIKR |  |  |  |  |  |  |  |  |  |  |
|  | molPH5201: antibody having the VH and VL of SEQ ID NOS: 8 and 9 and murine constant domains, Fc substituted to eliminate mouse Fcγ receptor binding (antibody, V domains shown, murine constant domains, Fc-silenced) VH: QVQLVQSGAEVKKPGASVKVSCKASGYTFTDYNMHWVRQAPGQRLEWIGYIVPLNGGSTFNQKFKGRATITVDTSARTAYMELSSLRSEDTAVYYCARGGTRFAYWGQGTLVTVSS VL: DIVMTQSPDSLAVSLGERATINCRASESVDNFGVSFMYWFQQKPGQPPKLLIYGASNQGSGVPDRFSGSGSGTDFTLTISSLQAEDVAVYYCQQTKEVPYTFGGGTKVEIK | less intratumoral adenosine | decreased CD39 enzymatic activity | increased the number of complete response | Neither anti-PD-L1 nor molPH5201 improved the anti-tumor effect of gemcitabine; also recorded: did not statistically significantly improve gemcitabine+anti-PD-L1 efficacy | tended to improve the anti-tumor efficacy of the combination gemcitabine+anti-PD-L1 | did not increase the number of CR | Neither anti-PD-L1 nor molPH5201 improved the anti-tumor effect of gemcitabine; also recorded: did not statistically significantly improve gemcitabine+anti-PD-L1 efficacy | did not improve the anti-tumor efficacy of gemcitabine | did not modify tumor growth | neither anti-PD-L1 nor molPH5201 improved the anti-tumor effect of gemcitabine; also recorded: improved the anti-tumor efficacy of the gemcitabine+anti-PD-L1 combination |

— patent US20260191954A1, “COMPOSITIONS AND METHODS FOR NEOADJUVANT TREATMENT IN CANCER” (INNATE PHARMA, priority 2022, published 2026)
